The values that follow come from article doi:10.1101/2023.05.30.542914 (bioRxiv, 2023).

This assay concerns the target T1, COPB2_(1-304), N-terminal WD-repeat domain of the COPB2 coatomer subunit (S. cerevisiae, UniProt P41811 1-304).
T1 sequence: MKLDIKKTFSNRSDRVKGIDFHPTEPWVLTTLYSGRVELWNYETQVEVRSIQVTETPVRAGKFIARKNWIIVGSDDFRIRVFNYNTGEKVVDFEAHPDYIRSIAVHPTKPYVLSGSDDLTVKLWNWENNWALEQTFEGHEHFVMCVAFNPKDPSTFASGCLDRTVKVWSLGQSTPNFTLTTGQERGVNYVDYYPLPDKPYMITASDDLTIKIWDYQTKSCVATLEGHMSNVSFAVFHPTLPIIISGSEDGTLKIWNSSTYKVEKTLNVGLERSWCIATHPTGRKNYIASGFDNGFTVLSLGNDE
Kind of assay: ITC.

B1: Exosome Binding Peptide (EBP) of Wnt7a, 18 aa polypeptide (240-257) (peptide)
peptide: PVRASRNKRPTFLKIKKP
B1: binding was characterised by a dissociation constant (Kd) of 11.6 µM.

B2: Wnt_(252-257) peptide (LKIKKP), C-terminal half of the EBP (peptide)
peptide: LKIKKP
Molecule B2 had a Kd of 37.2 µM.
